Values of other authors, collected in publication PMC5519506 (Molecular pharmaceutics, 2016).
Like-named read-outs stand apart in the source and are kept apart here.

Columns and labels:
[1] = tested on: EGFR^high tumor; conditions: ref [28], cited from earlier work; for tumor:muscle ratio / tumor:blood ratio: fibronectin
[2] = fibronectin; ref [28]; cited from earlier work

Substance: fibronectin
- tumor accumulation ([1]; 1 h, second of two values): 2.4 ± 1.0 %ID/g
- tumor accumulation ([1]; 1 h): 3.4 ± 1.0 %ID/g
- tumor:muscle ratio ([1]; 1 h, PET): 8.6 ± 3.0
- tumor:muscle ratio ([1]; 1 h, excised tissue): 10 ± 4
- tumor:blood ratio ([1]; 1 h): 8.9 ± 4.7
- tumor:muscle ratio ([1]; 4 h, excised tissue): 4.2 ± 1.3
- tumor:blood ratio ([1]; 4 h): 6.4 ± 4.3
- clearance half-time [2]: 2.1 ± 0.3 min
